From US8652790 (University of Pennsylvania, dated 2014)

B1: PDE(p), peptide of the calmodulin-binding domain of phosphodiesterase (C15S) (peptide)
peptide: QTEKMWQRLKGILRSLVKQ
notes: C15S is used to avoid oxidation; also called PDEs(p)
B2: CaMKI(p), peptide of the calmodulin-binding domain of calmodulin kinase I (peptide)
peptide: AKSKWKQAFNATAVVRHMRKLQ
notes: Synthetic peptide for ITC and for titration of CaM; The expressed version used for target-domain NMR carries an extra amino-terminal GS; also called CaMK1p
B3: nNOS(p), peptide of the calmodulin-binding domain of neuronal nitric oxide synthase (peptide)
peptide: KRRAIGFKKLAEAVKFSAKLMGQ
notes: Synthetic peptide for ITC and for titration of CaM
B4: eNOS(p), peptide of the calmodulin-binding domain of endothelial nitric oxide synthase (peptide)
peptide: RKKTFKEVANAVKISASLMG
notes: Synthetic peptide for ITC and for titration of CaM; The expressed version used for target-domain NMR carries an extra amino-terminal GS

Tests used:
[1] = target: T1, calcium-saturated calmodulin (human CaM, GenBank AAD45181) (human, UniProt P0DP23 2-149); test: isothermal titration calorimetry, CaM (200 µM) titrated into 5-20 µM peptide, 308 K
[2] = target: T1, calcium-saturated calmodulin (human …); test: isothermal titration calorimetry, CaM (200 µM) titrated into 5-20 µM peptide, 308 K; footnote c: From Frederick et al.

| Binder | -TΔSbinding^total [1] | ΔGbinding^total [1] | ΔHbinding^total [1] | -TΔSbinding^total [2] | ΔGbinding^total [2] | ΔHbinding^total [2] |
| --- | --- | --- | --- | --- | --- | --- |
| B1 | 8.1 kcal/mol | -9.06 kcal/mol | -17.2 kcal/mol | – | – | – |
| B2 | – | – | – | 16.6 kcal/mol | -11.8 kcal/mol | -28.4 kcal/mol |
| B3 | -0.454 kcal/mol | -12.4 kcal/mol | -11.9 kcal/mol | – | – | – |
| B4 | 6.14 kcal/mol | -11.8 kcal/mol | -17.9 kcal/mol | – | – | – |
